Patent US5686574

System: TR/CAR chimera (TR beta A/B and C domains fused to CAR D, E, F domains)
Assay: cell_activity
Settings: no ligand, charcoal-stripped serum; JEG3 cells

AAAGGTAAGATCAGGGACGTGACCGCAG (double strand) [T3RE]
activity (% of TR beta response): > 50
